Measurements from patent US20210388110A1 (published 2021).

Molecular target: T1, soluble human GPC3 (human, UniProt P51654 25-563, limits assumed)
T1 construct: soluble human GPC3 as analyte; also called glypican 3
Assay: SPR (Biacore), soluble human GPC3

T1 sequence (P51654 other isoform, or with tags, fused parts or gaps limits assumed, form in doubt): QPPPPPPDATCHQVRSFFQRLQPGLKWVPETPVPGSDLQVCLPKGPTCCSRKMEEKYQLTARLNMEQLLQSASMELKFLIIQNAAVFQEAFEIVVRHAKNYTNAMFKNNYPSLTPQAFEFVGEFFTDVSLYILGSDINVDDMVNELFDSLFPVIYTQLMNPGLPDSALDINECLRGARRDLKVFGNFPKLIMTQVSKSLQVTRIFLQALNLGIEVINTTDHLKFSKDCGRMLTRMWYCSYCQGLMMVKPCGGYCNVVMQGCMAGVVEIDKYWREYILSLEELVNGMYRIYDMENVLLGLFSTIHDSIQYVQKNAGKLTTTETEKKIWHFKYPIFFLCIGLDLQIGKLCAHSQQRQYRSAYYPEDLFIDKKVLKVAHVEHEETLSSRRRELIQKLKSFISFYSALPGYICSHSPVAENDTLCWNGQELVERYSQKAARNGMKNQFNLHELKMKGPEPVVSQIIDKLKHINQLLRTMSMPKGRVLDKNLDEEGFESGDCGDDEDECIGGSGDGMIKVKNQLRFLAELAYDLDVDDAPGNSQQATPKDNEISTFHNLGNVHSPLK

Row | Binder | Kd
1 | H0610-G1dh/none-Hi-Kn010G3/L0173-k0 (antibody, human IgG1, kappa, single-arm (one Fab)) heavy: not shown EPKSSDKTHTCPPCPAPELLGGPSVFLFPPKPKDTLMISRTPEVTCVVVDVSHEDPEVKFNWYVDGVEVHNAKTKPREEQYNSTYRVVSVLTVLHQDWLNGKEYKCKVSNKALPAPIEKTISKAKGQPREPQVCTLPPSRDELTKNQVSLWCLVKGFYPSDIAVEWESNGQPENNYKTTPPVLDSDGSFFLYSKLTVDKSRWQQGNVFSCSVMHEALHNRYTQKSLSLSP light: DIVMTQSPLSLPVTPGEPASISCRSSQSLVHSNRNTYLHWYQQKPGQAPRLLIYKVSNRFSGVPDRFSGSGSGTDFTLKISRVEAEDVGVYYCGQGTQFPYTFGQGTKLEIKRTVAAPSVFIFPPSDEQLKSGTASVVCLLNNFYPREAKVQWKVDNALQSGNSQESVTEQDSKDSTYSLSSTLTLSKADYEKHKVYACEVTHQGLSSPVTKSFNRGEC | 2.83 nM
2 | H0610-G1dh/none-Hi-Kn010G3/L0186-k0 (antibody, human IgG1, kappa, single-arm (one Fab)) heavy: not shown EPKSSDKTHTCPPCPAPELLGGPSVFLFPPKPKDTLMISRTPEVTCVVVDVSHEDPEVKFNWYVDGVEVHNAKTKPREEQYNSTYRVVSVLTVLHQDWLNGKEYKCKVSNKALPAPIEKTISKAKGQPREPQVCTLPPSRDELTKNQVSLWCLVKGFYPSDIAVEWESNGQPENNYKTTPPVLDSDGSFFLYSKLTVDKSRWQQGNVFSCSVMHEALHNRYTQKSLSLSP light: DIVMTQSPLSLPVTPGEPASISCRSSQSLVHSNRNTYLHWYQQKPGQAPRLLIYKVSNRFSGVPDRFSGSGSGTDFTLKISRVEAEDVGVYYCGQGTQWPYTFGQGTKLEIKRTVAAPSVFIFPPSDEQLKSGTASVVCLLNNFYPREAKVQWKVDNALQSGNSQESVTEQDSKDSTYSLSSTLTLSKADYEKHKVYACEVTHQGLSSPVTKSFNRGEC | 1.08 nM
3 | H0610-G1dh/none-Hi-Kn010G3/L0204-k0 (antibody, human IgG1, kappa, single-arm (one Fab)) heavy: not shown EPKSSDKTHTCPPCPAPELLGGPSVFLFPPKPKDTLMISRTPEVTCVVVDVSHEDPEVKFNWYVDGVEVHNAKTKPREEQYNSTYRVVSVLTVLHQDWLNGKEYKCKVSNKALPAPIEKTISKAKGQPREPQVCTLPPSRDELTKNQVSLWCLVKGFYPSDIAVEWESNGQPENNYKTTPPVLDSDGSFFLYSKLTVDKSRWQQGNVFSCSVMHEALHNRYTQKSLSLSP light: DIVMTQSPLSLPVTPGEPASISCRSSQSPVHSNRNTYLHWYQQKPGQAPRLLIYKVSNRFRGVPDRFSGSGSGTDFTLKISRVEAEDVGVYYCGQGTQVPYTFGQGTKLEIKRTVAAPSVFIFPPSDEQLKSGTASVVCLLNNFYPREAKVQWKVDNALQSGNSQESVTEQDSKDSTYSLSSTLTLSKADYEKHKVYACEVTHQGLSSPVTKSFNRGEC | 0.727 nM
4 | H0610-G1dh/none-Hi-Kn010G3/L0202-k0 (antibody, human IgG1, kappa, single-arm (one Fab)) heavy: not shown EPKSSDKTHTCPPCPAPELLGGPSVFLFPPKPKDTLMISRTPEVTCVVVDVSHEDPEVKFNWYVDGVEVHNAKTKPREEQYNSTYRVVSVLTVLHQDWLNGKEYKCKVSNKALPAPIEKTISKAKGQPREPQVCTLPPSRDELTKNQVSLWCLVKGFYPSDIAVEWESNGQPENNYKTTPPVLDSDGSFFLYSKLTVDKSRWQQGNVFSCSVMHEALHNRYTQKSLSLSP light: DIVMTQSPLSLPVTPGEPASISCRSSQSPVHSNRWTYLHWYQQKPGQAPRLLIYKVSNRFSGVPDRFSGSGSGTDFTLKISRVEAEDVGVYYCGQGTQVPYTFGQGTKLEIKRTVAAPSVFIFPPSDEQLKSGTASVVCLLNNFYPREAKVQWKVDNALQSGNSQESVTEQDSKDSTYSLSSTLTLSKADYEKHKVYACEVTHQGLSSPVTKSFNRGEC | 1.22 nM
5 | H0610-G1dh/none-Hi-Kn010G3/L0209-k0 (antibody, human IgG1, kappa, single-arm (one Fab)) heavy: not shown EPKSSDKTHTCPPCPAPELLGGPSVFLFPPKPKDTLMISRTPEVTCVVVDVSHEDPEVKFNWYVDGVEVHNAKTKPREEQYNSTYRVVSVLTVLHQDWLNGKEYKCKVSNKALPAPIEKTISKAKGQPREPQVCTLPPSRDELTKNQVSLWCLVKGFYPSDIAVEWESNGQPENNYKTTPPVLDSDGSFFLYSKLTVDKSRWQQGNVFSCSVMHEALHNRYTQKSLSLSP light: DIVMTQSPLSLPVTPGEPASISCRSSQSPVHSNRNTYIHWYQQKPGQAPRLLIYKVSNRFSGVPDRFSGSGSGTDFTLKISRVEAEDVGVYYCYQGTQVPYTFGQGTKLEIKRTVAAPSVFIFPPSDEQLKSGTASVVCLLNNFYPREAKVQWKVDNALQSGNSQESVTEQDSKDSTYSLSSTLTLSKADYEKHKVYACEVTHQGLSSPVTKSFNRGEC | 1.12 nM
6 | H0610-G1dh/none-Hi-Kn010G3/L0181-k0 (antibody, human IgG1, kappa, single-arm (one Fab)) heavy: not shown EPKSSDKTHTCPPCPAPELLGGPSVFLFPPKPKDTLMISRTPEVTCVVVDVSHEDPEVKFNWYVDGVEVHNAKTKPREEQYNSTYRVVSVLTVLHQDWLNGKEYKCKVSNKALPAPIEKTISKAKGQPREPQVCTLPPSRDELTKNQVSLWCLVKGFYPSDIAVEWESNGQPENNYKTTPPVLDSDGSFFLYSKLTVDKSRWQQGNVFSCSVMHEALHNRYTQKSLSLSP light: DIVMTQSPLSLPVTPGEPASISCRSSQSLVHSNRNTYLHWYQQKPGQAPRLLIYKVSNRFSGVPDRFSGSGSGTDFTLKISRVEAEDVGVYYCGQGTQPPYTFGQGTKLEIKRTVAAPSVFIFPPSDEQLKSGTASVVCLLNNFYPREAKVQWKVDNALQSGNSQESVTEQDSKDSTYSLSSTLTLSKADYEKHKVYACEVTHQGLSSPVTKSFNRGEC | 3.51 nM
7 | H0610-G1dh/none-Hi-Kn010G3/L0201-k0 (antibody, human IgG1, kappa, single-arm (one Fab)) heavy: not shown EPKSSDKTHTCPPCPAPELLGGPSVFLFPPKPKDTLMISRTPEVTCVVVDVSHEDPEVKFNWYVDGVEVHNAKTKPREEQYNSTYRVVSVLTVLHQDWLNGKEYKCKVSNKALPAPIEKTISKAKGQPREPQVCTLPPSRDELTKNQVSLWCLVKGFYPSDIAVEWESNGQPENNYKTTPPVLDSDGSFFLYSKLTVDKSRWQQGNVFSCSVMHEALHNRYTQKSLSLSP light: DIVMTQSPLSLPVTPGEPASISCRSSQPPVHSNRNTYLHWYQQKPGQAPRLLIYKVSNRFSGVPDRFSGSGSGTDFTLKISRVEAEDVGVYYCGQGTQVPYTFGQGTKLEIKRTVAAPSVFIFPPSDEQLKSGTASVVCLLNNFYPREAKVQWKVDNALQSGNSQESVTEQDSKDSTYSLSSTLTLSKADYEKHKVYACEVTHQGLSSPVTKSFNRGEC | 1.13 nM
8 | H0610-G1dh/none-Hi-Kn010G3/L0200-k0 (antibody, human IgG1, kappa, single-arm (one Fab)) heavy: not shown EPKSSDKTHTCPPCPAPELLGGPSVFLFPPKPKDTLMISRTPEVTCVVVDVSHEDPEVKFNWYVDGVEVHNAKTKPREEQYNSTYRVVSVLTVLHQDWLNGKEYKCKVSNKALPAPIEKTISKAKGQPREPQVCTLPPSRDELTKNQVSLWCLVKGFYPSDIAVEWESNGQPENNYKTTPPVLDSDGSFFLYSKLTVDKSRWQQGNVFSCSVMHEALHNRYTQKSLSLSP light: DIVMTQSPLSLPVTPGEPASISCRPSQSPVHSNRNTYLHWYQQKPGQAPRLLIYKVSNRFSGVPDRFSGSGSGTDFTLKISRVEAEDVGVYYCGQGTQVPYTFGQGTKLEIKRTVAAPSVFIFPPSDEQLKSGTASVVCLLNNFYPREAKVQWKVDNALQSGNSQESVTEQDSKDSTYSLSSTLTLSKADYEKHKVYACEVTHQGLSSPVTKSFNRGEC | 1.04 nM
9 | H0610-G1dh/none-Hi-Kn010G3/L0205-k0 (antibody, human IgG1, kappa, single-arm (one Fab)) heavy: not shown EPKSSDKTHTCPPCPAPELLGGPSVFLFPPKPKDTLMISRTPEVTCVVVDVSHEDPEVKFNWYVDGVEVHNAKTKPREEQYNSTYRVVSVLTVLHQDWLNGKEYKCKVSNKALPAPIEKTISKAKGQPREPQVCTLPPSRDELTKNQVSLWCLVKGFYPSDIAVEWESNGQPENNYKTTPPVLDSDGSFFLYSKLTVDKSRWQQGNVFSCSVMHEALHNRYTQKSLSLSP light: DIVMTQSPLSLPVTPGEPASISCRSSQSPVHSNRNTYLHWYQQKPGQAPRLLIYKVSNRFWGVPDRFSGSGSGTDFTLKISRVEAEDVGVYYCGQGTQVPYTFGQGTKLEIKRTVAAPSVFIFPPSDEQLKSGTASVVCLLNNFYPREAKVQWKVDNALQSGNSQESVTEQDSKDSTYSLSSTLTLSKADYEKHKVYACEVTHQGLSSPVTKSFNRGEC | 1.01 nM
10 | H0610-G1dh/none-Hi-Kn010G3/L0208-k0 (antibody, human IgG1, kappa, single-arm (one Fab)) heavy: not shown EPKSSDKTHTCPPCPAPELLGGPSVFLFPPKPKDTLMISRTPEVTCVVVDVSHEDPEVKFNWYVDGVEVHNAKTKPREEQYNSTYRVVSVLTVLHQDWLNGKEYKCKVSNKALPAPIEKTISKAKGQPREPQVCTLPPSRDELTKNQVSLWCLVKGFYPSDIAVEWESNGQPENNYKTTPPVLDSDGSFFLYSKLTVDKSRWQQGNVFSCSVMHEALHNRYTQKSLSLSP light: DIVMTQSPLSLPVTPGEPASISCRSSQSPVHSNRNTYLHWYQQKPGQAPRLLIYKVSNRFWGVPDRFSGSGSGTDFTLKISRVEAEDVGVYYCYQGTQVPYTFGQGTKLEIKRTVAAPSVFIFPPSDEQLKSGTASVVCLLNNFYPREAKVQWKVDNALQSGNSQESVTEQDSKDSTYSLSSTLTLSKADYEKHKVYACEVTHQGLSSPVTKSFNRGEC | 0.53 nM
11 | H0610-G1dh/none-Hi-Kn010G3/L0203-k0 (antibody, human IgG1, kappa, single-arm (one Fab)) heavy: not shown EPKSSDKTHTCPPCPAPELLGGPSVFLFPPKPKDTLMISRTPEVTCVVVDVSHEDPEVKFNWYVDGVEVHNAKTKPREEQYNSTYRVVSVLTVLHQDWLNGKEYKCKVSNKALPAPIEKTISKAKGQPREPQVCTLPPSRDELTKNQVSLWCLVKGFYPSDIAVEWESNGQPENNYKTTPPVLDSDGSFFLYSKLTVDKSRWQQGNVFSCSVMHEALHNRYTQKSLSLSP light: DIVMTQSPLSLPVTPGEPASISCRSSQSPVHSNRNTYIHWYQQKPGQAPRLLIYKVSNRFSGVPDRFSGSGSGTDFTLKISRVEAEDVGVYYCGQGTQVPYTFGQGTKLEIKRTVAAPSVFIFPPSDEQLKSGTASVVCLLNNFYPREAKVQWKVDNALQSGNSQESVTEQDSKDSTYSLSSTLTLSKADYEKHKVYACEVTHQGLSSPVTKSFNRGEC | 2.11 nM
12 | H0610-G1dh/none-Hi-Kn010G3/L0206-k0 (antibody, human IgG1, kappa, single-arm (one Fab)) heavy: not shown EPKSSDKTHTCPPCPAPELLGGPSVFLFPPKPKDTLMISRTPEVTCVVVDVSHEDPEVKFNWYVDGVEVHNAKTKPREEQYNSTYRVVSVLTVLHQDWLNGKEYKCKVSNKALPAPIEKTISKAKGQPREPQVCTLPPSRDELTKNQVSLWCLVKGFYPSDIAVEWESNGQPENNYKTTPPVLDSDGSFFLYSKLTVDKSRWQQGNVFSCSVMHEALHNRYTQKSLSLSP light: DIVMTQSPLSLPVTPGEPASISCRSSQSPVHSNRNTYLHWYQQKPGQAPRLLIYKVSNRFSGVPDRFSGSGSGTDFTLKISRVEAEDVGVYYCYQGTQVPYTFGQGTKLEIKRTVAAPSVFIFPPSDEQLKSGTASVVCLLNNFYPREAKVQWKVDNALQSGNSQESVTEQDSKDSTYSLSSTLTLSKADYEKHKVYACEVTHQGLSSPVTKSFNRGEC | 0.865 nM
13 | H0610-G1dh/none-Hi-Kn010G3/L0175-k0 (antibody, human IgG1, kappa, single-arm (one Fab)) heavy: not shown EPKSSDKTHTCPPCPAPELLGGPSVFLFPPKPKDTLMISRTPEVTCVVVDVSHEDPEVKFNWYVDGVEVHNAKTKPREEQYNSTYRVVSVLTVLHQDWLNGKEYKCKVSNKALPAPIEKTISKAKGQPREPQVCTLPPSRDELTKNQVSLWCLVKGFYPSDIAVEWESNGQPENNYKTTPPVLDSDGSFFLYSKLTVDKSRWQQGNVFSCSVMHEALHNRYTQKSLSLSP light: DIVMTQSPLSLPVTPGEPASISCRSSQSLVHSNRNTYLHWYQQKPGQAPRLLIYKVSNRFSGVPDRFSGSGSGTDFTLKISRVEAEDVGVYYCGQGTQHPYTFGQGTKLEIKRTVAAPSVFIFPPSDEQLKSGTASVVCLLNNFYPREAKVQWKVDNALQSGNSQESVTEQDSKDSTYSLSSTLTLSKADYEKHKVYACEVTHQGLSSPVTKSFNRGEC | 3.84 nM
